The values that follow come from article PMC10786891, “Massively parallel profiling of RNA-targeting CRISPR-Cas13d”.

Residue numbers refer to the chain shown, from its start. Names may count otherwise.

T1: EsCas13d, nuclease-dead (Eubacterium siraeum, UniProt B0MS50, R295A;H300A;R849A;H854A)
T1 sequence: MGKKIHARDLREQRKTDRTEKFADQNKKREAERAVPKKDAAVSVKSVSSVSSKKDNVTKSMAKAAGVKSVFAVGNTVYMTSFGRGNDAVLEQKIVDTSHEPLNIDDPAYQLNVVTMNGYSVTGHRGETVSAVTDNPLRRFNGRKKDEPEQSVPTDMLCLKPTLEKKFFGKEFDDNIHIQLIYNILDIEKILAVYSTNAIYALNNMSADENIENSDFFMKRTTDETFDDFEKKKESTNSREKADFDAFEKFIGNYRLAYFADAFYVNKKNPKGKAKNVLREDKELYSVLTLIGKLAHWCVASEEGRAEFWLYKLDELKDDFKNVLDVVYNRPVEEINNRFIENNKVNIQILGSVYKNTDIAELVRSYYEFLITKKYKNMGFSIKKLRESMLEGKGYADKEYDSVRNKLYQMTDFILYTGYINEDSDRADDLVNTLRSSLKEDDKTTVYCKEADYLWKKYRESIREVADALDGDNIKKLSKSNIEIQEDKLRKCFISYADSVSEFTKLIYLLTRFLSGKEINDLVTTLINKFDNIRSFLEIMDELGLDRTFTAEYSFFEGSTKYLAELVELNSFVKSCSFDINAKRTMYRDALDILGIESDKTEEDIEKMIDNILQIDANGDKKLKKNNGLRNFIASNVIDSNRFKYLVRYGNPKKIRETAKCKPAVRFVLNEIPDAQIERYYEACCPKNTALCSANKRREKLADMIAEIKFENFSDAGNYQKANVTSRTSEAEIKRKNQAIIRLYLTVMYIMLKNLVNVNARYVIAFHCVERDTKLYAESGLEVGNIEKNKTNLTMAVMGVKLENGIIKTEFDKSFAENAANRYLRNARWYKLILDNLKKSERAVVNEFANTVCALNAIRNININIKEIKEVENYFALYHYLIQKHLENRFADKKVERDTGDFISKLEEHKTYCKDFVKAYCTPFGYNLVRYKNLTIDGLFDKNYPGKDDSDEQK

B1: target 1 U10C,G17U (mixed)
RNA 1: CACCCGUGCAAAAAUGCAGGGGUCUAAAACUGAGCGGAUAACCUCUCUAUGG
RNA 2: GGGAAUGGAUCCACAUCUACGAAUUCGUACCAUAUAGAGGUCAUCCGCUCACCGAGAUCGGAAGAGCACACGU
B2: target 1 insC 3' of 3,insU 3' of 1 (mixed)
RNA 1: B1 RNA 1
RNA 2: GGGAAUGGAUCCACAUCUACGAAUUCGUACCAUAGAGAGGUUAUCCGCUCCAUCCGAGAUCGGAAGAGCACACGU
B3: target 1 insG 3' of 9 (mixed)
RNA 1: B1 RNA 1
RNA 2: GGGAAUGGAUCCACAUCUACGAAUUCGUACCAUAGAGAGGUUAGUCCGCUCACCGAGAUCGGAAGAGCACACGU
B4: target 1 C6G,G17U (mixed)
RNA 1: B1 RNA 1
RNA 2: B1 RNA 2 with C42U, C46G
B5: target 1 C2U,A20U (mixed)
RNA 1: B1 RNA 1
RNA 2: B1 RNA 2 with A32U, U35G, C42U, C50U
B6: target 1 insC 3' of 19,insG 3' of 16 (mixed)
RNA 1: B1 RNA 1
RNA 2: GGGAAUGGAUCCACAUCUACGAAUUCGUACCAUCAGAGGAGGUUAUCCGCUCACCGAGAUCGGAAGAGCACACGU
B7: target 1 insG 3' of 19,insA 3' of 4 (mixed)
RNA 1: B1 RNA 1
RNA 2: GGGAAUGGAUCCACAUCUACGAAUUCGUACCAUGAGAGAGGUUAUCCGCAUCACCGAGAUCGGAAGAGCACACGU
B8: target 1 insC 3' of 22,insG 3' of 21 (mixed)
RNA 1: B1 RNA 1
RNA 2: B6 RNA 2 with A32C, U33G, C34A, A35U, G36A, A37G, G38A
B9: target 1 insA 3' of 15,insA 3' of 3 (mixed)
RNA 1: B1 RNA 1
RNA 2: B7 RNA 2 with G34A, A35G, G36A, A37G, G38A, A50U, U51A
B10: target 1 insC 3' of 15,insC 3' of 5 (mixed)
RNA 1: B1 RNA 1
RNA 2: B7 RNA 2 with G34A, A35G, G36A, A37G, G38C, A50C
B11: target 1 insC 3' of 3,insG 3' of 1 (mixed)
RNA 1: B1 RNA 1
RNA 2: B2 RNA 2 with U53G
B12: target 1 insU 3' of 21,insG 3' of 3 (mixed)
RNA 1: B1 RNA 1
RNA 2: B7 RNA 2 with A32U, U33A, G34U, A50U, U51G
B13: target 1 U8G,G15C (mixed)
RNA 1: B1 RNA 1
RNA 2: B1 RNA 2 with U35G, G37C, C42U, U44G
B14: target 1 insG 3' of 11,insU 3' of 7 (mixed)
RNA 1: B1 RNA 1
RNA 2: B2 RNA 2 with U42G, A43U, U44A, C45U, G47U, U49G, C51U, A52C, U53A
B15: target 1 insU 3' of 14,insU 3' of 1 (mixed)
RNA 1: B1 RNA 1
RNA 2: B2 RNA 2 with G39U, U41G, A43U, U44A, C45U, G47C, C48G, U49C, C50U
B16: target 1 insC 3' of 3,insC 3' of 1 (mixed)
RNA 1: B1 RNA 1
RNA 2: B2 RNA 2 with U53C
B17: target 1 insU 3' of 4,insA 3' of 4 (mixed)
RNA 1: B1 RNA 1
RNA 2: B2 RNA 2 with C50A, C51U, A52C, U53A
B18: target 1 C6G,A18G (mixed)
RNA 1: B1 RNA 1
RNA 2: B1 RNA 2 with A34G, U35G, C42U, C46G
B19: target 1 insU 3' of 9,insC 3' of 1 (mixed)
RNA 1: B1 RNA 1
RNA 2: B2 RNA 2 with C45U, G47C, C48G, U49C, C50U, U53C
B20: target 1 insC 3' of 1,insC 3' of 1 (mixed)
RNA 1: B1 RNA 1
RNA 2: B2 RNA 2 with C51A, A52C, U53C
B21: target 1 insU 3' of 14,insA 3' of 10 (mixed)
RNA 1: B1 RNA 1
RNA 2: B6 RNA 2 with C34A, A35G, G36A, A37G, G38A, G39U, A40G, G42U, U44A
B22: target 1 insA 3' of 7,insG 3' of 6 (mixed)
RNA 1: B1 RNA 1
RNA 2: B2 RNA 2 with C46A, G47C, C48G, U49G, C51U, A52C, U53A
B23: target 1 G5C,U11A (mixed)
RNA 1: B1 RNA 1
RNA 2: B1 RNA 2 with U35G, U41A, C42U, G47C
B24: target 1 G17A,C22U (mixed)
RNA 1: B1 RNA 1
RNA 2: B1 RNA 2 with C30U, U35A, C42U
B25: target 1 insC 3' of 12,insU 3' of 5 (mixed)
RNA 1: B1 RNA 1
RNA 2: B2 RNA 2 with U41C, A43U, U44A, C45U, G47C, C48G, C51U, A52C, U53A
B26: target 1 insA 3' of 22,insU 3' of 21 (mixed)
RNA 1: B1 RNA 1
RNA 2: B6 RNA 2 with C31A, A32C, C34A, A35U, G36A, A37G, G38A
B27: target 1 insG 3' of 14,insA 3' of 8 (mixed)
RNA 1: B1 RNA 1
RNA 2: GGGAAUGGAUCCACAUCUACGAAUUCGUACCAUAGAGAGGGUUAUACCGCUCACCGAGAUCGGAAGAGCACACGU
B28: target 1 G12C,C22A (mixed)
RNA 1: B1 RNA 1
RNA 2: B1 RNA 2 with C30A, U35G, G40C, C42U
B29: target 1 insG 3' of 8,insC 3' of 1 (mixed)
RNA 1: B1 RNA 1
RNA 2: B2 RNA 2 with C45G, G47C, C48G, U49C, C50U, U53C
B30: target 1 insC 3' of 17,insG 3' of 7 (mixed)
RNA 1: B1 RNA 1
RNA 2: B27 RNA 2 with A36C, G37A, A38G, G39A, A46C, C47G
B31: target 1 insC 3' of 19,insA 3' of 4 (mixed)
RNA 1: B1 RNA 1
RNA 2: B7 RNA 2 with G34C

Usually Kd stands for the equilibrium constant for the complex coming apart. A high value points to weaker binding.

In this data set the target is T1, EsCas13d, nuclease-dead. Put plainly: crRNA (strand 1, pre-loaded); Mg2+; 40 mM Tris-HCl pH 7.5, 150 mM NaCl, 6 mM MgCl2, 1 mM DTT, 0.1% Tween-20, 0.2 mg/ml BSA; 25 C; 10 min per concentration, then washed. As to conditions: tags: His6-TwinStrep-SUMO cleaved; N-terminal SNAP kept (SNAP-Surface 488); label: 3' end held by stalled T7 RNA polymerase.
In turn, B1 showed a Kd of 55 ± 4 nM. As for B2, the figure is 10.8 ± 0.8 nM; as for B3, 17.2 ± 1 nM; as for B4, 31.4 ± 2.7 nM. With B5, binding was characterised by a dissociation constant (Kd) of 34 ± 4 nM. Molecule B6 gave a Kd of 61 ± 11 nM.

As to B7, the Kd was found to be 34.8 ± 3.1 nM. The molecule B8 came in with a Kd of 27.3 ± 3.1 nM. For B9, binding was put at a Kd of 7.48 ± 0.34 nM. In the case of B10 it was 9.8 ± 0.4 nM. B11: binding was put at a Kd of 11.1 ± 0.8 nM. Regarding B12, the Kd was 16.8 ± 0.7 nM. Against the preceding molecule, the Kd is about 1.5-fold higher. In turn, B13 had a Kd of 90 ± 19 nM. As to B14, binding was put at a Kd of 24.9 ± 0.8 nM. As to B15, the Kd is 48 ± 8 nM. The molecule B16 gave a Kd of 15.8 ± 1.1 nM.

Take B17: the affinity, expressed as Kd, was 9.1 ± 0.5 nM. Against the preceding molecule, the Kd is about 1.7-fold lower. For the molecule B18, the Kd stood at 48 ± 7 nM. Molecule B19 registered a Kd of 14.8 ± 0.7 nM. The molecule B20 registered a Kd of 11.2 ± 0.5 nM.

Regarding B21, the Kd turned out to be 43 ± 5 nM.

Regarding B22, the Kd was 8.09 ± 0.34 nM. Take B23: the Kd was 46 ± 10 nM. As to B24, the Kd is 59 ± 11 nM. B25 registered a Kd of 11.6 ± 1.5 nM. With B26, binding was put at a Kd of 6.09 ± 0.28 nM. Against the preceding molecule, the Kd is about 1.9-fold lower.

As to B27, the Kd was 10.6 ± 0.4 nM. For B28, binding was characterised by a dissociation constant (Kd) of 25 ± 1.1 nM.

B29 returned a Kd of 11.6 ± 0.5 nM. In turn, B30 registered a Kd of 42 ± 7 nM. In turn, B31 displayed a Kd of 25 ± 6 nM.
